Measured values taken from paper PMC7962911, “Modular Synthesis of Trifunctional Peptide-oligonucleotide Conjugates via Native Chemical Ligation” (Frontiers in Chemistry, 2021).

Key:
[1] = tested on: SMA patient-derived fibroblasts; experiment: Confocal microscopy of Cy5 fluorescent uptake; format: cell-based, human; conditions: 1 and 2 µm in OptiMEM without serum, 1 h at 37°C, Cy5 excitation 633 nm
Method: For fluorescent uptake studies, SMA fibroblast cells were plated at a density of 60,000 cells/well of a µ-Slide 4 Well ^Ph+ Glass Bottom chamber slides precoated with poly-L-ornithine. The cells reached 80% confluency after 24 h. They were treated with Cy5-labelled peptide-PNA conjugates made up at a concentration of 1 and 2 µm in OptiMEM without serum for 1 h at 37°C. At 15 min to the end of incubation time, Hoechst (1:1,000 dilution) was added to each well. Cells were washed with PBS and images of cells were taken using the Leica SP8 Resonant Scanning microscope with 63×/1.4 oil objective. The images were acquired at the Cy5-specific excitation of 633 nm and emission of 638–779 nm and Hoechst excitation and emission of 405 nm and 410–585 nm, respectively.

[2] = tested on: full-length SMN2 mRNA; experiment: SMN2 exon-inclusion assay (RT-qPCR of full-length SMN2 mRNA); format: cell-based, human; conditions: SMA patient-derived fibroblasts (Type-I, GM03813), conjugates 1 and 2 µm in serum-free Opti-MEM for 4 h at 37°C, then growth medium for 20 h, ∆∆Ct vs HPRT1, normalized to untreated = 1, mean ± SEM, N = 3
[3] = concentration range of 20–30 µm; peptides alone and as conjugate to ASOs; ref Neundorf et al., 2009; Shabanpoor et al., 2017; cited from earlier work
Text: We chose an FDA-approved oligonucleotide sequence (Table 1) targeting survival motor neuron-2 (SMN2) mRNA splice correction as a model ASO (in PNA chemistry) for conjugation to a previously characterized CPP derived from the receptor-binding domain of Apolipoprotein E [ApoE(133–150)] ([Meloni et al., 2020]). In order to synthesize trifunctional conjugates, three different functional moieties were selected for conjugation to the side-chain of […] that was generated during NCL of CPP-ASO. These functional moieties include the FDA-approved oligonucleotide sequence as above but incorporated in ...

**Q.** With “Ac-LRVRLASHLRKLRKRLLR-X-G-C-X-ATTCACTTTCATAATGCTGG | Cy5 [C2, Cy5-labelled ApoE-PNA conjugate, fluorophore on the cysteine thiol of C1]” as the substance, how does the “uptake in fibroblasts (Cy5 fluorescence)” value [1] read?
**A.** concentration-dependent increase in uptake

**Q.** With “Ac-LRVRLASHLRKLRKRLLR-X-G-C-X-ATTCACTTTCATAATGCTGG | Mal-ATTCACTTTCATAATGCTGG [C3, trifunctional conjugate of C1 with maleimide-PMO (SMN2) on the cysteine thiol]” as the substance, how does the “antisense activity (change in the level of full-length SMN2 mRNA)” value [2] read?
**A.** higher activity compared to the peptide-PNA (C1) conjugate

**Q.** Which cytotoxic effect [3] does the source give for “ApoE: previously characterized CPP derived from the receptor-binding domain of Apolipoprotein E (LRVRLASHLRKLRKRLLR; UniProt P02649 151-168, looked up, fragment)” here?
**A.** no significant cytotoxic effect
